# B1: S2P6 Fab fragment (Fab, V domains shown)
# VH: EVQLVQSGAEVKKPGASVKVSCKASGYTFTSQYMHWVRQAPGQGLEWIGIINPSGVHTSYAQKFQGRVTLTRDTSTSTLYMELSSLRSEDTAVYYCARGSPKGAFDYWGQGTLVTVSS
# VL: not shown
# Assays:
# [1] = target: SARS-CoV S 2P prefusion-stabilized ectodomain trimer (SARS-CoV, Urbani (AAP13441, named for …, UniProt P59594, stabilised)); assay: SPR
# [2] = target: MERS-CoV S 2P prefusion-stabilized ectodomain trimer (MERS-CoV, strain of ectodomain not …, stabilised); assay: SPR
binder,measurement,setting,value
B1,Kd,[1],7 nM
same,Kd,[2],12 nM

# Source: doi:10.1101/2021.05.09.442808 (bioRxiv, 2021)
